This note sets out measurements from patent US20230047413A1 (Janssen / Centocor, published 2023).

Like-named read-outs stand apart in the source and are kept apart here. Non-standard residues stand in square brackets, D forms with d. *: point of attachment. Biotin = O=C1N[C@H]2[C@H](CS[C@H]2CCCCC(=O)*)N1; pT = C[C@@H](OP(=O)(O)O)[C@H](N)C(=O)O; pS = N[C@@H](COP(=O)(O)O)C(=O)O; dPEG4 = PEG4 moiety

The target in assay [1] is T1, Peptide-2 (human, phosphothreonine 212, phosphothreonine 217 (tau 2N4R numbering); short chain biotin (SCBiot) and dPEG4 at the N-terminus; amide at the C-terminus).
T1 construct: also called pT212/pT217-tau peptide (Peptide-2)
Nature of the assay: SPR ProteOn, peptide captured, Fab as analyte. On the procedure:
A subset of HFA-PT3 monoclonal antibody variants, selected based on biophysical characterization and ELISA binding to PHF, were analyzed by Surface Plasmon Resonance (SPR) with a ProteOn XPR36 for binding to the following phosphopeptides: pT212/pT217-tau peptide (Peptide-2, SEQ ID NO: 48) and pT212-tau peptide (Peptide-8, SEQ ID NO: 54). All experiments were performed at 25° C. using PBST, pH 7.4, (Bio-Rad Cat#176-2720) as both running buffer and sample dilution buffer.
Fab/peptide binding. Biotinylated peptide was captured on a neutravidin-coated NLC biosensor chip pre-conditioned with PBST, and Fab was flowed over the surface to measure kinetic parameters. Approximately 5-10 RU of peptide was captured on the chip surface by diluting peptide to 10 ng/mL in PBST and injecting over the flow channels at 30 μL/min for 100 s. Serial dilutions of PT3 Fab (1.1 nM to 90 nM) were injected at 60 μL/min for 3 minutes (association phase), followed by 300 s of buffer only (dissociation phase).
Data were double referenced by subtraction of the interspot response, and the curves generated by the buffer only injection. The chip surface was regenerated with 0.85% phosphoric acid, followed by PBST injection before the next antibody titration injection. Data processing and analysis were performed using instrument software. The data were fit using a simple Langmuir 1:1 binding model.

Assay [2] deals with T2, Peptide-6 (human, phosphothreonine 217 (tau 2N4R numbering); SCBiot and dPEG4 at the N-terminus; amide at the C-terminus). Nature of the assay: SPR ProteOn, peptide captured, Fab as analyte; Peptide-6, phosphorylated at 217 only. How it is done:
(§1) The binding affinity of PT3 Fab towards each of the fourteen tau phosphopeptides shown in Table 6 was assessed by surface plasmon resonance (SPR) using a Bio-Rad ProteOn XPR36. Peptides were synthesized by standard chemical methods (New England Peptide) with short-chain biotin and a PEG4 moiety at the N-terminus. Biotinylated peptide was captured on a neutravidin-coated NLC biosensor chip and PT3 Fab was flowed over the surface to measure kinetic parameters.
(§2) All experiments were performed at 25° C. using phosphate buffered saline, pH 7.4, 0.005% Tween 20 (PBST) as both running buffer and sample dilution buffer. Prior to running samples, the NLC chip was conditioned by running PBST over the chip surface for 1 h. Approximately 5-10 RU of peptide was captured on the chip surface by diluting peptide to 10 ng/mL in PBST and injecting over the flow channels at 30 μL/min for 100 s. Serial dilutions of PT3 Fab (1.1-90 nM) were analyzed and, with the exception of Peptide-8, each concentration was measured in duplicate. After capture of peptides, the antibody titration was injected at 60 μL/min for 3 minutes (association phase), followed by 300 s of buffer only (dissociation phase).
(§3) The data were double referenced by subtraction of the interspot response and the curves generated by the buffer-only injection. […] The data were analyzed using a simple Langmuir 1:1 binding model.

The target in assay [3] is T2, Peptide-6. Nature of the assay: SPR ProteOn, peptide captured, Fab as analyte; range of n=2; Peptide-6 (pT217 only); upper end of n=2 range. On the procedure: as §1, §2, §3
The target of assay [4] is T3, Peptide-1 (human, phosphothreonine 212, phosphoserine 214, phosphothreonine 217 (tau 2N4R numbering); short chain biotin (SCBiot) and dPEG4 at the N-terminus; amide at the C-terminus).
T3 construct: also called tau peptide phosphorylated at T212/S214/T217
Nature of the assay: SPR ProteOn, peptide captured, Fab as analyte; range of n=2; Peptide-1 (pT212/pS214/pT217); upper end of n=2 range. On the procedure:
as §1, §2, §3

Assay [5] addresses T1, Peptide-2. Nature of the assay: SPR ProteOn, peptide captured, Fab as analyte; Peptide-2 (pT212/pT217); peptide mapping run of Table 6, n=2. On the procedure:
as §1, §2, §3

In assay [6] the target is T3, Peptide-1. Nature of the assay: SPR ProteOn, peptide captured, Fab as analyte; range of n=2; Peptide-1 (pT212/pS214/pT217); lower end of n=2 range. On the procedure: as §1, §2, §3
Assay [7] concerns the target T2, Peptide-6. Nature of the assay: SPR ProteOn, peptide captured, Fab as analyte. On the procedure: as §1, §2
(§4) The data were double referenced by subtraction of the interspot response and the curves generated by the buffer-only injection. The chip surface was regenerated using a single injection of 0.85% phosphoric acid at 30 μL/min for 100 s contact time, followed by four injections of running buffer before the next antibody titration injection. The data processing and kinetic analysis were done using the instrument software. The data were analyzed using a simple Langmuir 1:1 binding model.

Assay [8] has as its target T1, Peptide-2. Nature of the assay: SPR ProteOn, peptide captured, Fab as analyte. How it is done: as §1, §2, §4
The source holds these as a separate data set.

Assay [9] concerns the target T3, Peptide-1. Nature of the assay: SPR ProteOn, peptide captured, Fab as analyte. How it is done:
as §1, §2, §4

The target in the next assay is T4, Peptide-11 (human).
T4 peptide: {Biotin-dPEG4}-SPGTPG[pS]RSR[pT]P[pS]LPTPPT-NH2
Nature of the assay: SPR ProteOn, peptide captured, Fab as analyte. On the procedure:
as §1, §2, §4

The target of the next assay is Peptide-5 (human, phosphoserine 210, phosphoserine 214, phosphothreonine 217 (tau 2N4R numbering); SCBiot and dPEG4 at the N-terminus; amide at the C-terminus). Nature of the assay: SPR ProteOn, peptide captured, Fab as analyte. How it is done:
as §1, §2, §4

For the next assay, the target named is Peptide-4 (human, phosphoserine 210, phosphothreonine 217 (tau 2N4R numbering); SCBiot and dPEG4 at the N-terminus; amide at the C-terminus). Nature of the assay: SPR ProteOn, peptide captured, Fab as analyte. How it is done: as §1, §2, §4
Sequence of Peptide-4 (human, phosphoserine 210, phosphothreonine 217 (tau 2N4R numbering); SCBiot and dPEG4 at the N-terminus; amide at the C-terminus) (peptide, as listed by the source): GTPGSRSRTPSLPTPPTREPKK

B1: PT3 Fab (B187) (Fab, V domains shown)
VH: EVKLVESGGDLVKPGGSLKLSCAASGFTFSSYAMSWVRQNPEKRLEWVASISKGGNTYYPNSVKGRFTISRDNARNILYLQMSSLRSEDTALYYCARGWGDYGWFAYWGQVTLVTVSA
VL: DIKMTQSPSSMYASLGERVTITCKASQDINRYLNWFQQKPGKSPKTLIYRANRLLDGVPSRFSGSGSGQDYSLTISSLDYEDMGIYYCLQYDEFPLTFGDGTKLELK
notes: Chimeric Fab: mouse variable regions, human IgG1/kappa constant region, 6xHis tag at the C-terminus of the heavy chain; also called mouse parental Fab of PT3
What is called koff is the first-order rate constant of dissociation. A high value points to a short-lived complex. By kon is commonly meant the rate constant with which the complex forms. Lower therefore signals slow association. As usually defined, the Kd is the equilibrium constant for the complex coming apart. As for B1, the koff with Peptide-2 [1] was determined as 6.39e-05 s⁻¹; with Peptide-6 [7] it was 0.00616 s⁻¹; with Peptide-2 [8], 0.000168 s⁻¹; with Peptide-1 [9], 0.00028 s⁻¹; with Peptide-5 it was 0.00584 s⁻¹; with Peptide-4 it was 0.00627 s⁻¹. In addition, the kon with Peptide-2 [1] is 776000 M⁻¹ s⁻¹; with Peptide-6 [7], 541000 M⁻¹ s⁻¹; with Peptide-2 [8] it was 764000 M⁻¹ s⁻¹; with Peptide-1 [9], 1.27e+06 M⁻¹ s⁻¹; with Peptide-5, 704000 M⁻¹ s⁻¹; with Peptide-4, 968000 M⁻¹ s⁻¹. Also, the Kd in the assay with Peptide-6 [2] is 11.4 nM; with Peptide-6 [3], 10.9 to 11.9 nM; with Peptide-1 [4], 0.14 to 0.38 nM; in the assay with Peptide-2 [5], 0.27 nM; with Peptide-1 [6], 0.14 to 0.38 nM. The binding result in the assay with Peptide-11 is reported as “no binding (tested: 1.1-90 nM)”.
